# Reference: US20100260668A1 (published 2010)
# Target: T1, VEGF (UniProt P15692-4 27-191)
# T1 construct: Bought reagent; also called vascular endothelial growth factor
# Experiment: SPR (Biacore), DVD-Ig captured, VEGF in solution
# T1 sequence (P15692 other isoform, or with tags, fused parts or gaps limits assumed): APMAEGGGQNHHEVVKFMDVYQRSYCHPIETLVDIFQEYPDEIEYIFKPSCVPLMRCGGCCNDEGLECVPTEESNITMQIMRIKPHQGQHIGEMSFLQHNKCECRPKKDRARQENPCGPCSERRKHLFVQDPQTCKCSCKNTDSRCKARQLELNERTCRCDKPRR
Binder,Kd,koff,kon
"DVD504 (bispecific antibody, human IgG1, kappa, DVD-Ig; N-term; VD AB071 (VEGF), C-term; VD AB072 (DLL4); HC linker long, LC linker short; also called DVD504H; DVD504L) heavy: not shown light: DIQMTQSPSSLSASVGDRVTITCRASQVIRRSLAWYQQKPGKAPKLLIYAASNLASGVPSRFSGSGSGTDFTLTISSLQPEDFATYYCQQSNTSPLTFGQGTKVEIKRTVAAPDIQMTQSSSYLSVSLGGRVTITCKASDHINNWLAWYQQKPGNAPRLLISGATSLETGVPSRFSGSGSGKDYTLSITSLQTEDVATYYCQQYWSIPLTFGAGTKLELKRTVAAPSVFIFPPSDEQLKSGTASVVCLLNNFYPREAKVQWKVDNALQSGNSQESVTEQDSKDSTYSLSSTLTLSKADYEKHKVYACEVTHQGLSSPVTKSFNRGEC",0.000941 nM,1.52e-07 s⁻¹,162000 M⁻¹ s⁻¹
"DVD510 (bispecific antibody, human IgG1, kappa, DVD-Ig; N-term; VD AB071 (VEGF), C-term; VD AB072 (DLL4); HC linker short, LC linker long; also called DVD510H; DVD510L) heavy: not shown light: DIQMTQSPSSLSASVGDRVTITCRASQVIRRSLAWYQQKPGKAPKLLIYAASNLASGVPSRFSGSGSGTDFTLTISSLQPEDFATYYCQQSNTSPLTFGQGTKVEIKRTVAAPSVFIFPPDIQMTQSSSYLSVSLGGRVTITCKASDHINNWLAWYQQKPGNAPRLLISGATSLETGVPSRFSGSGSGKDYTLSITSLQTEDVATYYCQQYWSIPLTFGAGTKLELKRTVAAPSVFIFPPSDEQLKSGTASVVCLLNNFYPREAKVQWKVDNALQSGNSQESVTEQDSKDSTYSLSSTLTLSKADYEKHKVYACEVTHQGLSSPVTKSFNRGEC",0.0733 nM,1.2e-05 s⁻¹,164000 M⁻¹ s⁻¹
"DVD465 (bispecific antibody, human IgG1, kappa, DVD-Ig; N-term; VD AB015 (DLL4), C-term; VD AB070 (VEGF); HC linker short, LC linker short; also called DVD465H; DVD465L) heavy: not shown light: DIQMTQSPSSLSASVGDRVTITCRASQDVSTAVAWYQQKPGKAPKLLIYSASFLYSGVPSRFSGSGSGTDFTLTISSLQPEDFATTYYCQQSYTGTVTFGQGTKVEIKRTVAAPDIQMTQSPSSLSASVGDRVTITCRASQDVSTAVAWYQQKPGKAPKLLIYSASFLYSGVPSRFSGSGSGTDFTLTISSLQPEDFATYYCQQSYTTPPTFGQGTKVEIKRTVAAPSVFIFPPSDEQLKSGTASVVCLLNNFYPREAKVQWKVDNALQSGNSQESVTEQDSKDSTYSLSSTLTLSKADYEKHKVYACEVTHQGLSSPVTKSFNRGEC",1.19 nM,0.000414 s⁻¹,348000 M⁻¹ s⁻¹
"DVD471 (bispecific antibody, human IgG1, kappa, L234A L235A, DVD-Ig; N-term; VD AB015 (DLL4), C-term; VD AB070 (VEGF); HC linker long, LC linker long; also called DVD471H; DVD471L) heavy: not shown light: DIQMTQSPSSLSASVGDRVTITCRASQDVSTAVAWYQQKPGKAPKLLIYSASFLYSGVPSRFSGSGSGTDFTLTISSLQPEDFATTYYCQQSYTGTVTFGQGTKVEIKRTVAAPSVFIFPPDIQMTQSPSSLSASVGDRVTITCRASQDVSTAVAWYQQKPGKAPKLLIYSASFLYSGVPSRFSGSGSGTDFTLTISSLQPEDFATYYCQQSYTTPPTFGQGTKVEIKRTVAAPSVFIFPPSDEQLKSGTASVVCLLNNFYPREAKVQWKVDNALQSGNSQESVTEQDSKDSTYSLSSTLTLSKADYEKHKVYACEVTHQGLSSPVTKSFNRGEC",0.917 nM,0.000232 s⁻¹,253000 M⁻¹ s⁻¹
"DVD477 (bispecific antibody, human IgG1, kappa, L234A L235A, DVD-Ig; N-term; VD AB015 (DLL4), C-term; VD AB070 (VEGF); HC linker long, LC linker short; also called DVD477H; DVD477L) heavy: not shown light: DIQMTQSPSSLSASVGDRVTITCRASQDVSTAVAWYQQKPGKAPKLLIYSASFLYSGVPSRFSGSGSGTDFTLTISSLQPEDFATTYYCQQSYTGTVTFGQGTKVEIKRTVAAPDIQMTQSPSSLSASVGDRVTITCRASQDVSTAVAWYQQKPGKAPKLLIYSASFLYSGVPSRFSGSGSGTDFTLTISSLQPEDFATYYCQQSYTTPPTFGQGTKVEIKRTVAAPSVFIFPPSDEQLKSGTASVVCLLNNFYPREAKVQWKVDNALQSGNSQESVTEQDSKDSTYSLSSTLTLSKADYEKHKVYACEVTHQGLSSPVTKSFNRGEC",1.02 nM,0.000254 s⁻¹,249000 M⁻¹ s⁻¹
"DVD483 (bispecific antibody, human IgG1, kappa, DVD-Ig; N-term; VD AB015 (DLL4), C-term; VD AB070 (VEGF); HC linker short, LC linker long; also called DVD483H; DVD483L) heavy: not shown light: DIQMTQSPSSLSASVGDRVTITCRASQDVSTAVAWYQQKPGKAPKLLIYSASFLYSGVPSRFSGSGSGTDFTLTISSLQPEDFATTYYCQQSYTGTVTFGQGTKVEIKRTVAAPSVFIFPPDIQMTQSPSSLSASVGDRVTITCRASQDVSTAVAWYQQKPGKAPKLLIYSASFLYSGVPSRFSGSGSGTDFTLTISSLQPEDFATYYCQQSYTTPPTFGQGTKVEIKRTVAAPSVFIFPPSDEQLKSGTASVVCLLNNFYPREAKVQWKVDNALQSGNSQESVTEQDSKDSTYSLSSTLTLSKADYEKHKVYACEVTHQGLSSPVTKSFNRGEC",0.963 nM,0.000872 s⁻¹,905000 M⁻¹ s⁻¹
"DVD443 (bispecific antibody, human IgG1, kappa, DVD-Ig; N-term; VD AB069 (DLL4), C-term; VD AB070 (VEGF); HC linker short, LC linker short; also called DVD443H; DVD443L) heavy: not shown light: DIVMTQSPDSLAVSLGERATISCRASESVDNYGISFMKWFQQKPGQPPKLLIYAASNQGSGVPDRFSGSGSGTDFTLTISSLQAEDVAVYYCQQSKEVPWTFGGGTKVEIKRTVAAPDIQMTQSPSSLSASVGDRVTITCRASQDVSTAVAWYQQKPGKAPKLLIYSASFLYSGVPSRFSGSGSGTDFTLTISSLQPEDFATYYCQQSYTTPPTFGQGTKVEIKRTVAAPSVFIFPPSDEQLKSGTASVVCLLNNFYPREAKVQWKVDNALQSGNSQESVTEQDSKDSTYSLSSTLTLSKADYEKHKVYACEVTHQGLSSPVTKSFNRGEC",1.71 nM,0.000267 s⁻¹,157000 M⁻¹ s⁻¹
